Biological target: MOB1B 2-216 (UniProt Q7L9L4)
Experiment: SPOT peptide array overlaid with GST-MOB1B

binding against the reference (reference: nonphosphorylated T353 15-mer, sites T353)	binding against the reference (reference: nonphosphorylated T367 15-mer, sites T367)	Substance
stronger		MST1 (from UniProt Q13043) pT353 15-mer
	stronger	MST1 (from UniProt Q13043) pT367 15-mer

— article PMC5461540, “MOB1 Mediated Phospho-recognition in the Core Mammalian Hippo Pathway” (Molecular & Cellular Proteomics : MCP, 2017)
